Test results published in the nanobody polyreactivity screen of Harvey et al. (2022).

assay: yeast display, Sf9 membrane polyspecificity reagent, FACS + sequencing; frameworks hold sequencing errors
Summary of the method: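 Sorting gates, low and high (top ~1%), were placed on anti-HA fluorescence to track expression and on streptavidin fluorescence to track reagent binding. A clone's polyreactivity label is taken from the gate it came out of. The reagent was 10% biotinylated, detergent-solubilized Sf9 membrane, applied for 1 hour at 4 °C to galactose-induced yeast display cells.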

Row | Sequence | polyreactivity (PSR sort gate)
1 | QDQLVESGGGLVQAGGSLRLSCAASGGTFGGYAMGWYRQAPGKERELVAAITYSGGSTYYADSVKGRFTISRDNAKNTVYLQMNSLKPEDTAVYYCAQYHYRYYYWGQGTQVTVSS | high polyreactivity
2 | QDQLVESGGGLVQAGGSLRLSCAASGIIFEYYAMGWYRQAPGKEREFVASITSSDGSTYYADSVKGRFTISRDNAKNTVYLQMNILKPEDTAVYYCAAAGDYVVPISSTAGFGGDYWGQGTQVTVSS | low polyreactivity
3 | QDQLVESGGGLVQAGGSLRLSCAASGIIFYGYGMGWYRPAPGKERELVAAISRSGGSTYYADSVKGRFTISRDNAKNTVYLQMNSLKPEDTAVYSCAASGVTYDYWGQGTQVTVSS | high polyreactivity
4 | QDQLVESGGGLVQAGGSLRLSCAASGINFPLYAMGWYRQAAGKERELVAAISSSDGDTFYADSVKWRFTISRDNAKNTVYLQMNSLKPYDTAVYYCAAVAPTELLYTYGYYPYYYWGQGTQVTVSS | high polyreactivity
5 | QDQLVESGGGLVQAGGSLRLSCAASGITFAGYARGWYRQAPGKERELVAAITGRGGSTYYADSVKGRFTISRDNAKNTVYLQMNSLKPEDTAVYYCAARSSKTGTGVRFGYWGQGTQVTVSS | high polyreactivity
6 | QDQLVESGGGLVQAGGSLRLSCAASGITFAYYAMGWYRQAPGQERDFVAAINGGGSTNYADSVKGRFTISRDNAKNTVYLQMKSLKAEDTAVYYCNARRAYRAWDYPYDYWGQGTQVTVSS | high polyreactivity
7 | QDQLVESGGGLVQAGGSLRLSCAASGITFPGYPMGWYRHAPGKEREFVAAISWGGVSTYYADSVMGRFTISRDNAKNTVYLQMNSLKPEDTAVYYCNAEYPWSVVGYDYWGQGTQVTVSS | low polyreactivity
8 | QDQLVESGGGLVQAGGSLRLSCAASGITLQLNAMGWYIQAPGKEREFVARISISGGRTYYADSVKGRFTISRDNAKNTVYLQMNSLKPEDTAVYYCAARVGRGYREYGYWGQGTQVTVSS | high polyreactivity
9 | QDQLVESGGGLVQAGGSLRLSCAASGLTFSLYAMGWYRQAPGKERELVAAISWTGGSTYYADSVKGRFTISRDTPKNTVYLQMNSLKPEDTAVYYCNARYTLFARYGYDYWGQGTQVTVSS | low polyreactivity
10 | QDQLVESGGGLVQAGGSLRLSCAASGLTLYKNGLGWYRQAHGKEMELVAVISRSGGRTYYADSVKGRFTISRDNAKYTVYLQMNSLKPEDTAVYYCAARQYGPSYTYYYWGQGTQVTVSS | high polyreactivity
11 | QDQLVESGGGLVQAGGSLRLSCAASGNIFTSNAMGWYRQAPGKERELVAANTSGGSTYYADSVKGRFTISRDNAKNTVYLQMYSLKPEDTAVYFCASLRRPHLRPYYYWGQGTQGTVSS | high polyreactivity
12 | QDQLVESGGGLVQAGGSLRLSCAASGRIFAGNARGWYRQAPGKERELVATITRGGSTNYADSVKRPFTISRDNAKNTVYLQMNSLNPEDTAVYYCNADIRRHGGYAHVYWGQGTQVTVSS | low polyreactivity
13 | QDQLVESGGGLVQAGGSLRLSCAASGRIFDIYAMGWYRQAPGKERELVAAITWRGGSTYYADSVKGRFTISRDTAKNTLYLQMNSLKPEDTAVYYCAVDFITPRGSYYWGQGTQVTVSS | low polyreactivity
14 | QDQLVESGGGLVQAGGSLRLSCAASGRIFDLYAMGWYRQAPGKERELVATISTRGGRTYYADSVKGRFTISRDNAKNTVYLQMKRLKPEDTAVYYWNARYLGYGWFDYWGQGTQVTVSS | low polyreactivity
15 | QDQLVESGGGLVQAGGSLRLSCAASGRIFGINAMGWYRQAPGKERELVAAISSGGSTYYADSVKGRFTISRDNAKNTVYLQMNILKPEDTAVYYCAKGPSWKYYSYTLDYWGKGTQVTVSS | low polyreactivity
16 | QDQLVESGGGLVQAGGSLRLSCAASGRIFGPYTMGWYRQAPGKEREFVAAISRSGDSTYYADSVKGRFTISRDNAKNTVYLQMNSLKPEDSAVYYCAAKYGTRLSAYYYWGQGTLVTVSS | high polyreactivity
17 | QDQLVESGGGLVQAGGSLRLSCAASGRIFNANTMGWYRQAPGKERELVARITWSGGGTYYADSVKGRFTISRDNAKNTVYLQMNCLKPEDTAVYYCAARLLIRYYYWGHGTQVTVSS | high polyreactivity
18 | QDQLVESGGGLVQAGGSLRLSCAASGRIFPLYVMGWYRQAPGKERELVAAISRSGSRTYYADSVKGRFTISRDNAKNTVYLQMNSLKPEDTAVYYCAAVTDGTTRYDGDYWGQGTQVTVSS | high polyreactivity
19 | QDQLVESGGGLVQAGGSLRLSCAASGRIFQANAMGWYRQAPGKERELVASISSGGSTNYADSVKGRFTISRDNAKNTVYLQMNRLKPEDTAVYYCAARHPSSAYWVGYYWYDYWGQGTQVTVSS | low polyreactivity
20 | QDQLVESGGGLVQAGGSLRLSCAASGRIFRLNAMGWSRQAPWKERELVAAITRGGNTYYADSVKGRFTISRDNAKNTVYLQMNSLKPEDTAVYYCAATSSRVSGYRYDYWGQGTQVTVSS | high polyreactivity
21 | QDQLVESGGGLVQAGGSLRLSCAASGRIFTRYAMGWYRQAPGKEREFVAAISVRGGTTYYADSVKGRFTISRDNAKNTVYLQMNSLKPEDSAVYYCAARKISKYDYWGQGTQVTVSS | high polyreactivity
22 | QDQLVESGGGLVQAGGSLRLSCAASGRIFYTNAMGWYRQAPGKERQLVATISSTGSTNYADSVKGRFTISRDNAKNTVYLQMNSLKPEDTAVYYCATQVGWRTYSHRNRGYYYWGQGTQVTVSS | high polyreactivity

Row | Sequence | polyreactivity (PSR sort gate)
23 | QDQLVESGGGLVQAGGSLRLSCAASGRIFYTNAMGWYRQAPGQERDLVAVISWGGDTTYYADSVKGRFTISRDNAKNTVYLQMNSLKPEDTAVYYCNGDWGPTYEIYDSWGQGTQVTVSS | low polyreactivity
24 | QDQLVESGGGLVQAGGSLRLSCAASGRIFYVYAMGWYRQAPGKEREFVASISWSGGSTYYADSVKGRFTISRDNAKNTFYLQLNSLKPEDTSVYYCNARAFTHRYDYWGQGTQVTVSS | low polyreactivity
25 | QDQLVESGGGLVQAGGSLRLSCAASGRIFYYNAIGWYRQAPGKEMELVATITRAGGTYYADSVKGRFTISRDNAKNTVYLQMNSLKPEDTAVYYCAKRHPIVDDYKGDYWGQGTQVTVSS | low polyreactivity
26 | QDQLVESGGGLVQAGGSLRLSCAASGRIISANAMGWYRQAPGKERELVATISTGGGRTYYADSVKGRFTISRDNAKNTVYLQMNSLKPEDTAVYYCNATRNYARVRYYYWGQGTQVTVSS | high polyreactivity
27 | QDQLVESGGGLVQAGGSLRLSCAASGRTFADYAMGWYRQAPGKERELVAAISWRGGSTYYADSVKGRFTISRDNAKNTVYLQLNSLNPEDTAVYYCNKAYPADYDYWGQGTQVTVSS | low polyreactivity
28 | QDQLVESGGGLVQAGGSLRLSCAASGRTFDTNAMGWYRQAPGKERELVASISWSTGSTYYADSVKGRFTISRDNAKNTVYLQMNSLKPEDTAVYYCAARKWFRYKGRSRDYWGQGTQVTVSS | high polyreactivity
29 | QDQLVESGGGLVQAGGSLRLSCAASGRTFGPNAMGWYRQAPGKERELVAAITGGGSTYYADSVKGRFTISRDNAKNTVYLQMNSLKPEDTAVYYCSNRGQGFHFGRDYWGQGTQVTVSS | low polyreactivity
30 | QDQLVESGGGLVQAGGSLRLSCAASGRTFGPYAMGWYRQAPGKEREFVAAITWRGGRTNYADSVKGRFTISRDNAKNTVYLQMNSLKPEDTAVYYCNAVISPHQWIRGGDSWGQGTQVTVSS | low polyreactivity
31 | QDQLVESGGGLVQAGGSLRLSCAASGRTFKRYAMGWYRQAPGKERELVAAITFSGGSTYYADSVKGRFTISRDNAKNTVYLQMNSLKPEDTAVYYCAAGYRWTGGLKYDFWGQGTQVTVSS | high polyreactivity
32 | QDQLVESGGGLVQAGGSLRLSCAASGRTFNPYAMGSYRQAPGKERELVAAIRWRGTRTYYADSVKGRFTISRDNAKNTVYLQMNSLKPEDTAVYYCAADDPHSREMDYWGQGTQVTVSS | high polyreactivity
33 | QDQLVESGGGLVQAGGSLRLSCAASGRTFRAYAMGWSRQAPGKERELVASISRRGGSTYYADSVKGRFTISRDNAKNTDYLQMNSLNPEDTAVYYCAASDKYLQYDDWGQGTEVTVSS | high polyreactivity
34 | QDQLVESGGGLVQAGGSLRLSCAASGRTFRRNAMGWYRQAPGKERELVAAITWRGTSTYYADSVKGRFTISRDNAKNTVYLQMNSLKPEDTAVYYCAAVVKDSRPYQAYVGSIHRDYWGQGTQVTVSS | high polyreactivity
35 | QDQLVESGGGLVQAGGSLRLSCAASGRTFWRYALGWYRQAPGKEREMVAAISSGGITYYADSVKGRFTISRDNAKNTVYLQMNSLKPEDTAVYYCARYGPYESSYHYDYWGQGTQVTVSS | high polyreactivity
36 | QDQLVESGGGLVQAGGSLRLSCAASGRTLYYYTMGWYRQAPGKERELVAAITWSGGSTYADSVKGRFTISRDNAKNTVYLQMNSLKPEDTAVYYCAAVRTSRFDYWGQGTQVTVSS | high polyreactivity
37 | QDQLVESGGGLVQAGGSLRLSCAASGRTYASNAMGWYRQAPGKERELVAAITYSGSSTYYADSVKGRFTISRDNAKNTVYLQMNSLKPEDTAVYYCGKGGRRWTYKTWKGYDYWGQGTQVTVSS | high polyreactivity
38 | QDQLVESGGGLVQAGGSLRLSCAASGSIFGPYAMGWYRQAPGKERELVAAITYRGDSTYYADSVKGRFTISRDYAKNTVYLQMNSLKPEDTAVYYCAAEYIYDLWEEYWGQGTQVTVSS | high polyreactivity
39 | QDQLVESGGGLVQAGGSLRLSCAASGSIFGYNDMGWYRQAPGKERELVATITWGGGRTRYADSVKGRFTSSRDNAKNTVYLHMNSLKPEVTAVYYCAADVLRISTLLFRGPGFDSWGQGTQVTVSS | low polyreactivity
40 | QDQLVESGGGLVQAGGSLRLSCAASGSIFPVYDMGWSRQAPGTEREMVAAISVSGGSTYYADSVKGRFTISRDNAKNTVYLQMKSLKPEDTAVYYCIADVHLYWYWYYEREDYWGQGTQVTVSS | low polyreactivity
41 | QDQLVESGGGLVQAGGSLRLSCAASGSIFRPNAMGWYRQAHGKERELVAAITYSTGSTYYADSVKGRFTISRDNAKNTVYLQMNSLKPEDTAVYYCAARFWRWLFPFDYLGQGTQVTVSS | high polyreactivity
42 | QDQLVESGGGLVQAGGSLRLSCAASGSIFRTYAMGWYRQAPGKERELVATITYSDGNTYYADSVKGRFTISRDNAKNTVYLQMNSLKPEDTAFYYSNADGIYASISGYRYDYWGQGTLVTVSS | low polyreactivity
43 | QDQLVESGGGLVQAGGSLRLSCAASGSIFRYYVRGWYREAPGKERELVAAISKSGGSTYYADSVKGRFTISRDNAKNTVYLQMNSLKPEDTAVYYCAAGNTRGGDFNYWGQGTQVTVSS | high polyreactivity
